Patent publication US20170240614A1

What was measured:
[1] = molecular target: human insulin receptor isoform B (hIR-B) containing a C9 epitope tag at the C-terminus (human) (UniProt P06213); experiment: cell-based or functional assay
[2] = molecular target: human insulin receptor isoform A (hIR-A) (human) (UniProt P06213); experiment: competitive radioligand binding (SPA), [125I]-A14-insulin, hIR-A membranes
[3] = molecular target: human insulin receptor isoform B (hIR-B) containing a C9 epitope tag at the C-terminus (human) (UniProt P06213); experiment: competitive radioligand binding (SPA), [125I]-A14-insulin, hIR-B membranes

- Receptor Phosphorylation EC50 [1]: 253 nM
- Ki [2]: 4.1 nM
- Ki [3]: 50.8 nM
Substance: IGF-1 (from UniProt P05019 49-118) (ligand)
